# How the values were obtained:
# [1] = target: HPV59 L1 C175S mutant after limited trypsin digestion (crystallized pentamer) (human papillomavirus type 59); experiment: AUC
# [2] = target: HPV59 L1 C175S mutant after limited trypsin digestion (crystallized pentamer) (human papillomavirus type 59); experiment: crystal structure
substance,measurement,setting,value
HPV59 L1 C175S mutant after limited trypsin digestion (crystallized pentamer) (domain or fragment),stoichiometry N,[1],5
same,stoichiometry N,[2],5

# Source: paper PMC5595370
